The test addresses T1, ScVan1 (Saccharomyces cerevisiae Van1p glycosyltransferase domain, residues 87-535) (S. cerevisiae, UniProt P23642 87-535).
T1 construct: Van1p, S. cerevisiae S288c, lacking the first 86 amino acid residues (cytoplasmic domain, transmembrane domain and predicted disordered region); glycosyltransferase domain 87-535; Cloned into pNIFTY/MBP (MBP, hexahistidine, TEV site at the N-terminus); the tag was cleaved off with TEV protease; also called ScVan1p; V1; source: E. coli BL21(DE3) pLysS, purified (Ni-IMAC, TEV cleavage, anion …)
T1 sequence (looked up): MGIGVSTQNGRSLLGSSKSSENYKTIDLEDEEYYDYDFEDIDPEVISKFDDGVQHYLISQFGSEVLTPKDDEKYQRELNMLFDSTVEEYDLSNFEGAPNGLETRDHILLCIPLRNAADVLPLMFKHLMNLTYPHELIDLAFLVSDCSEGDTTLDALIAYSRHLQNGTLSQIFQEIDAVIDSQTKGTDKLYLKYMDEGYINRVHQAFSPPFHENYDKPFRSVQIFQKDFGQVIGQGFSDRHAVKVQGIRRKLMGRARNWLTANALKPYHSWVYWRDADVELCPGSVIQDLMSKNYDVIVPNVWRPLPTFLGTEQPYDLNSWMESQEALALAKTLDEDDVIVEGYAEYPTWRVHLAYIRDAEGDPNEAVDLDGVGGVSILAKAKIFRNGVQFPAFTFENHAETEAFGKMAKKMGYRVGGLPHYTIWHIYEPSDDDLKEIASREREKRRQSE
The test is described as follows: BLI; Octet RED384; biotinylated ScMnn9 bound at 25 µg/ml to streptavidin sensors; ScVan1 at 0 to 15 µM in buffer C (100 mM HEPES pH 7.5, 5 mM MnCl2, 1 mg/ml BSA, 0.015% BRIJ 35); association 10 min, dissociation 20 min; triplicate, full kinetic fit. To be noted: both partners purified.

The results in this text go back to article PMC3787745, “Yeast Mnn9 is both a priming glycosyltransferase and an allosteric activator of mannan biosynthesis” (Open Biology, 2013).

B1: ScMnn9 (Saccharomyces cerevisiae Mnn9p glycosyltransferase core, residues 93-395) (domain or fragment, S. cerevisiae, UniProt P39107 93-395, looked up)
chain: EGHIAHYDLNKLHSTSEAAVNKEHILILTPMQTFHQQYWDNLLQLNYPRELIELGFITPRTATGDLALKKLENAIKKVQTDKKTQRFSKITILRQNSQSFDKLMEKERHALDVQKERRAAMALARNELLFSTIGPHTSWVLWLDADIIETPPSLIQDMTKHNKAILAANIYQRFYDEEKKQPSIRPYDFNNWQESDTGLEIASQMGDDEIIVEGYAEIATYRPLMAHFYDANGVPGEEMALDGVGGGCTLVKAEVHRDGAMFPNFPFYHLIETEGFAKMAKRLNYDVFGLPNYLVYHIEEENH
modifications: biotinylated with EZ-link NHS-PEG4-Biotin
notes: Mnn9p, S. cerevisiae S288c, lacking the first 92 amino acid residues (cytoplasmic domain, transmembrane domain and predicted disordered region); glycosyltransferase core 93-395; Cloned into pNIFTY/MBP (MBP, hexahistidine, TEV site at the N-terminus); PDB 3ZF8 holds the D236N mutant of the same limits; also called ScMnn9p; M9; source: E. coli BL21(DE3) pLysS, purified (Ni-IMAC, TEV cleavage, anion …)
By Kd is commonly meant a measure of binding affinity in units of concentration. High values mean a looser complex, low ones a tighter complex. One may read the koff as a measure of how fast the partners let go of each other. High values mean a short-lived complex, low ones a long-lived complex. Usually kon stands for the rate constant with which the complex forms. With B1, binding was characterised by a dissociation constant (Kd) of 480 nM, the koff worked out at 0.00032 s⁻¹ and the kon stood at 620 M⁻¹ s⁻¹.
